Measurements as given in PMC10519980, “Characterization and structure-based protein engineering of a regiospecific saponin acetyltransferase from Astragalus membranaceus” (Nature Communications, 2023).
Numbering of substitutions follows the chain as printed. Numbers in names are those of the source.

B1: AmAT7-3 (Astragalus propinquus; A310G) (protein)
chain: MSSLRLVSSSTIQAANDNNDDSSQLIDLTVWDLIGLERESIQQGLLYHHPNQVDTPNQIQHLKHSLSSTLSFFPPFAGRLVITEYEDNTATCFIACNNAGALFVHAVAENTTISDILQPNKYVPPIVNSLFSLNGVKNREGTIQPLLVVQVTELVDGIFIGLTVNHVVADGKSFWLFVNSWAEISRGFQKPSKLPTLERWFLNDTDHPIRFSFSMEEEKKKFQSGQLTTRFFHFTRENIAHLKSKANGEVTLGNTERRISSLQALLAHVWRSVVRCERIDPQEVLYYILLIDARTRLIPPLEDDYFGNAGDAGVVIMKAGELLEGGLGNVAWNMNKVISLNSDEKIKNRYKSWLRTPQLPSMGMHTTFASQLLIIANSPRFNVYGNDFGWGKPLAVRSSAENKRDCKIVLFAGAEEGSIDIEVCLPYEILEALGNDAEFLDNHSIG
notes: full length cloned in pET-28a(+), E. coli BL21(DE3), Ni-NTA; for kinetics and crystals pET28a-TEV plus size exclusion
B2: AmAT7-3 (Astragalus propinquus; A310W) (protein)
chain: B1 chain with G310W
notes: as for B1

Substrate: CC(C)(O)[C@@H]1CC[C@](C)([C@H]2[C@@H](O)C[C@@]3(C)[C@@H]4C[C@H](O[C@@H]5O[C@H](CO)[C@@H](O)[C@H](O)[C@H]5O)[C@H]5C(C)(C)[C@@H](O[C@@H]6OC[C@@H](O)[C@H](O)[C@H]6O)CC[C@@]56C[C@@]46CC[C@]23C)O1
Assay: UHPLC kinetic assay of acetylation
Assay type: biochemical, Astragalus propinquus
Details: acetyl-CoA as acyl donor

Row | Protein | Km (paper prints 'toward 1a', read as formation of product 1a (C3'-O-acetylation) from 1) [µM] | Km (paper prints 'toward 1b', read as formation of product 1b (C4'-O-acetylation) from 1) [µM]
1 | B1 | 76.7 | 
2 | B2 |  | 168.3
